# Assay results published in patent US20220195015A1 (published 2022).
# B1: C528 (antibody, V domains shown)
# VH: EVQLVESGGGLVQPGGSLRLSCAASGFTFRNYDMHWVRQVAGKGLEWVSAIGTSGDTYYPDSVKGRFTISRENAKNSVYLQMNNLRAGDTAVYFCVRDREISGWTGWYFDLWGRGTLVTVSS
# VL: DIQMTQSPSSLSASVGDRVTITCRASQTIHNYLNWYQQIPGKAPRLLIYATNTLQSGVPSRFSGSGSGTDFTLTITGLQPEDFATYYCQQSYSTPPITFGQGTRLEIK
# B2: C538 (antibody, V domains shown)
# VH: QLQLQESGPGLVKPSETLSLTCTVSGGSISSSSYYWAWIRQPPGKGLEWIGNIYYSGITYYSPSLKSRVTISVDTSKNQFSLKLRSVTAADTAVYYCARQHRYGSGSSELLWGQGTLVTVSS
# VL: QSALTQPPSASGSPGQSVTISCTGTSSDVGSYNYVSWYQQHPGKAPKLMIYEVTKRPSGVPDRFSGSKSGNTASLTVSGLQADDEADYYCSSYAGSSNLIFGGGTKLTVL
# B3: C536 (antibody, V domains shown)
# VH: QVQLVESGGGLVKPGRSLRLSCTVSGFTFGAYAMSWFRQAPGKGLEWVGFIRSKTYGGTTEYAASLKGRFTISRDDSKSIAFLQMNSLKTEDTAVYFCSRGGYYDGSPYYWNRPDAFDIWGLGTMVTVS
# VL: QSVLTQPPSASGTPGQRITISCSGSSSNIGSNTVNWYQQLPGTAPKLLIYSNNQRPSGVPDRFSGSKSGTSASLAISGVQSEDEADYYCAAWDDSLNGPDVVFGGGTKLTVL
# B4: C534 (antibody, V domains shown)
# VH: QVQLVQSGAEVKKPGSSVRVSCKASGGTFSRNVISWVRQAPGQGLEWMGGIIPMFATANYAQKFQGRVTITADESSSTAYMELSSLRSEDTAVYYCAREDFILVSAPIRENSYYYYGMDVWGQGTTVTVSS
# VL: EIVLTQSPGTLSLSPGERATLSCRASQSVSSNYLAWYQQKPGQAPRLLIYDASSRATGIPDRFSGSGSGTDFTLTISRLEPEDFAVYYCQQYGGSPRTFGQGTKVEIK
# B5: C533 (antibody, V domains shown)
# VH: EVQLVESGGSLVKPGGSLRLSCVASGLTFNHAWMSWVRQAPGKGLEWVGRIKSKIDGGTTDYAAPVKGRFTISRDDSKSTQYLQMNSLKTEDTAVYYCTTDCFWRLGGTTCYEHDAFDVWGQGTMVTVSS
# VL: DIQMTQSPSSLSASVGDRVTITCRASQAIATFLNWYQQKPGKAPKLLIYAASSLQSGVPSRFSGSGSGTDFTLTISNLQPEDFATYYCQQSYNSLHFGGGTKVEIK
# B6: C537 (antibody, V domains shown)
# VH: QLQLQESGPGLVKPSETLSLTCTVSGGAISSRNYHWGWIRQPPGKGLEWIGSIYYSGSTYYSPSLKSRVTISVDTSKNQFSLRLSSVTAADTAVYYCARLETSGWYTEDVFDIWGQGTMVTVSS
# VL: DIQMTQSPSSLSASVGDRVTITCRASQSISSYLNWYQQKPGKAPKLLIYAASSLQSGVPSRFSGSGSGTDFTLTISSLLPEDFATYYCQRSYSAMYTFGQGTKLEIK
# B7: C556 (antibody, V domains shown)
# VH: QVQLVQSGAEVKKPGASVKVSCKASGYTFTYYYMHWVRQAPGQGLEWMGIINPSGGSTSYAQKFQGRVTMTRDTSTSTVYMELSSLRSEDTAVYYCARPLLPGETGSLNRLDYWGQGTLVTVSS
# VL: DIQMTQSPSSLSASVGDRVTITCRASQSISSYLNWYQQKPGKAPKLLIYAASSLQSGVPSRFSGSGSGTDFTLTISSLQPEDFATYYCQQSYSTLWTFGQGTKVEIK
# B8: C526 (antibody, V domains shown)
# VH: QVQLVQSGAEVKKPGASVKVSCKASGHTFTTYYLHWVRQAPGQGLEWMGRIDPSGGSTTYAQKFQGRVTMTRDTSTSTVYMELSSLRSEDTALYYCARGGYCGSTSCSPDDYFDYWGQGTLVTVSS
# VL: SYELTQPPSVSVAPGKTARITCGGNNIGSKSVHWYQQKPGQAPVLVIYYDSDRPSGIPERFSGSNSGNTATLTISRVEAGDEADYYCQVWDSSSDHYYVFGTGTKVTVL
# B9: C523 (antibody, V domains shown)
# VH: QVQLQESGPGLVKPSETLSLTCTVSGASISSHYWSWIRQPPGKGLEWIGYIHYIGSTNYNPSLKSRVTILLDTSKNQFSLRLRSVTAADTAVYYCARGWPYCGVDCYSGFDYWGQGTLVTVSS
# VL: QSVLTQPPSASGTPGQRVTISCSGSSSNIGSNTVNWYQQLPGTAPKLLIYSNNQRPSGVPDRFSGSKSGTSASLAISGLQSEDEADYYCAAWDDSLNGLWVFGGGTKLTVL
# B10: C524 (antibody, V domains shown)
# VH: EVQLVESGGDLIQPGGSLRLSCAASGFSVSNSYMSWVRQAPGKGLEWVSIIYSGGSTYYADSVKGRFTISRDNSKNTLYLQMNSLRAEDTAVYFCAKTPRGDYDSSGTSAYWGQGTLVTVSS
# VL: QLVLTQSPSASASLGASVNLTCTLSSGHSSYAIAWHQQQPEKGPRFLMKLSSDGSHNKGDGIPDRFSGSSSGAERFLTISSLQSEDEADYYCQTWGIGSDWVFGGGTKLTVL
# B11: C555 (antibody, V domains shown)
# VH: EVQLVESGGGLVKPGGSLRLSCAASGLTFSTTWMSWVRQAPGKGLEWVGRIKSKGDGGTTDFAGPVKGRFSISRDDSKNTLYLHMNSLKTEDTAVYYCTTDDPGSYYYGMDVWGQGTTVTVSS
# VL: QTVVTQEPSLTVSPGGTVTLTCASSTGAVTSGHYPYWFQQKPGQAPRTLIYATSNKHSWTPARFSGSLLGGKAALTLSGAQPEDEADYYCLLSYSGARVFGGGTKLTVL
# B12: C535 (antibody, V domains shown)
# VH: EVQLVESGGALVQPGRSLRLSCAASGFTFDDYAMHWVRQAPGKGLEWVSSISWNGVSIGYADSVRGRFTISRDNAKNSLYLQMNSLKIGDTAFYYCARGLDGSSSASPDSWGQGTLVTVSS
# VL: DIQMTQSPSSVSASVGDRVTITCRASQGIGSWLAWYQQKPGKAPKLLIYLASSLQSGVPSRFSGSGSGTYFTLTISGLQPEDFATYYCQQGNSFPLTFGGGTKVEIK
# B13: C525 (antibody, V domains shown)
# VH: EVQLVESGGRLVQPGRSLRLSCAASGFTFDDYAIHWVRQAPGKGLEWVSGISWNSGSIGYADSVRGRFTISRDNAKNSLYLQMNSLRAEDTALYYCAKGLDSSSSASPDYWGQGTLVTVSS
# VL: DIQMTQSPSSVSASVGDRVTITCRASQDISSWLAWYQQKPGKAPKLLIYLASSLQSGVPSRFSGSGSGTDFILTISSLQPEDFGTYYCQQGNSFPLTFGGGTKVEIK
# B14: C563 (antibody, V domains shown)
# VH: EVQLVESGGGLVKPGGSLRLSCAASGFPFTNAWMSWVRQAPGKGLEWVGHIKDYTDGGTTDYAAPVKGKFTISRDDSKNTLYLHMNSLKTEDTAVYYCSTVGSYYYDSRGPTSDAFDIWGQGTLVTVSS
# VL: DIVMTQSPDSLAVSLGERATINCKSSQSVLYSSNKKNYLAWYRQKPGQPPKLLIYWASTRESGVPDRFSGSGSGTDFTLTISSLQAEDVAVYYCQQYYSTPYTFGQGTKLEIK
# B15: C550 (antibody, V domains shown)
# VH: EVQLVQSGAEVKKPGESLKISCKGSGYRFTNYWIGWVRQMPGKGLEWMGIIYPGDSDTRYSPSFQGQVTISADKSITTAYLQWSSLKASDTAMYYCARLSDRWYSPFDPWGQGTLVTVSS
# VL: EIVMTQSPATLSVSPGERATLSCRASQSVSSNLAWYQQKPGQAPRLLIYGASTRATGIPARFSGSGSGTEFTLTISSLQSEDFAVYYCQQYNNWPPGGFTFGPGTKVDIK
# B16: C532 (antibody, V domains shown)
# VH: EVQLVQSGAEVKKPGESLKISCKGSGYRFTNYWIGWVRQMPGKGLEWIGNIFPGDSDSRYSPSFQGQVTISVDMSITTAYLHWSSLKASDTAIYYCARLSERWYSPFDSWGQGTLVTVSS
# VL: EIVMTQSPATLSVSPGERATLSCRASQSVSSNLAWYQQKPGQAPRLLIYGASTRATGFPARFSGSGSGTEFTLTISSLQSEDFAVYFCQQYNNWPPGGFTFGPGTKVDIK
# B17: C527 (antibody, V domains shown)
# VH: QVQLVESGGGVVQPGRSLRLSCAASGFTFSSYGMHWVRQAPGKGLEWVALIGYDGTDKYYAENVKGRFTISRDNSKNTLFLQMNSLRGGDTAVYLCARDGIPFRYGMDVWGQGTTVTVSS
# VL: DIQMTQSPSTLSASVGDRVTITCRASQSIDIWLAWYQQKPGKAPKFLIHKASTLESGVPSRFSGSGSGTEFTLTISSLQPDDFATYYCQHYHSYSGTFGQGTKVEIK
# Legend:
# [1] = target: SARS-CoV-2 spike receptor binding domain (RBD), wild type (SARS-CoV-2, UniProt P0DTC2 319-539); assay: ELISA, RBD protein coated, mAb titrated
# [2] = target: SARS-CoV-2 spike receptor binding domain (RBD), wild type (SARS-CoV-2, UniProt P0DTC2 319-539); assay: ELISA, RBD protein coated, mAb titrated; remark: listed apart in the source
Binder,EC50 [1] [ng/mL],EC50 [2] [ng/mL]
B1,5.66,–
B2,–,3.94
B3,–,1.88
B4,–,4.85
B5,–,1.61
B6,–,41.9
B7,–,1.36
B8,18.2,–
B9,–,9.08
B10,–,5
B11,–,2.88
B12,–,2.46
B13,10.6,–
B14,–,1.19
B15,–,2.56
B16,–,1
B17,13.4,–
